Test results reported in patent EP2966448B1, “METHOD FOR THE PREDICTION OR PROGNOSIS OF THE RESPONSE OF A HUMAN SUBJECT SUFFERING FROM CANCER TO TREATMENT WITH AN ANTAGONIST OF THE NK1 RECEPTOR” (priority 2013, dated 2014).

Molecular target: NK1 receptor (human) (UniProt P25103)
Experiment: cell-based or functional assay

Sequence of NK1 receptor (human) (P25103 87-407): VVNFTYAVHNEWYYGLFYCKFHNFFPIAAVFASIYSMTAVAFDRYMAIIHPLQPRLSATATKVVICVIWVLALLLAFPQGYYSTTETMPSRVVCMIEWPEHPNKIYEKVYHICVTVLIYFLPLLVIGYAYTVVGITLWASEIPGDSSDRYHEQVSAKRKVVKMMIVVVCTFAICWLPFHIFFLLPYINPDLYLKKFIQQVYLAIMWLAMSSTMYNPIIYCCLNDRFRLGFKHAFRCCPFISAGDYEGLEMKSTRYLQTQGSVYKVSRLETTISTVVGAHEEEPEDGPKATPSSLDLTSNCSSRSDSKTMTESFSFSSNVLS

- Percentage of inhibition of cell cultures; Breast carcinoma (ductal adenocarcinoma); cases with amplification of the gene that encodes for the NK1 receptor: 96%
- Percentage of inhibition of cell cultures; Breast carcinoma (ductal adenocarcinoma); cases without amplification of the gene that encodes for the NK1 receptor: 26%
- Percentage of inhibition of cell cultures; Breast carcinoma (ductal adenocarcinoma); high expression of the truncated form of NK1 receptor (Group B): 94%
- Percentage of inhibition of cell cultures; Breast carcinoma (ductal adenocarcinoma); low expression of the truncated form of NK1 receptor (Group A): 24%
- Percentage of inhibition of cell cultures; Burkitt Lymphoma; cases with amplification of the gene that encodes for the NK1 receptor: 96%
- Percentage of inhibition of cell cultures; Burkitt Lymphoma; cases without amplification of the gene that encodes for the NK1 receptor: 25%
- Percentage of inhibition of cell cultures; Burkitt Lymphoma; high expression of the truncated form of NK1 receptor (Group B): 96%
- Percentage of inhibition of cell cultures; Burkitt Lymphoma; low expression of the truncated form of NK1 receptor (Group A): 26%
- Percentage of inhibition of cell cultures; Carcinoma of the uterine cervix (Squamous cell carcinoma); cases with amplification of the gene that encodes for the NK1 receptor: 94%
- Percentage of inhibition of cell cultures; Carcinoma of the uterine cervix (Squamous cell carcinoma); cases without amplification of the gene that encodes for the NK1 receptor: 27%
- Percentage of inhibition of cell cultures; Carcinoma of the uterine cervix (Squamous cell carcinoma); high expression of the truncated form of NK1 receptor (Group B): 95%
- Percentage of inhibition of cell cultures; Carcinoma of the uterine cervix (Squamous cell carcinoma); low expression of the truncated form of NK1 receptor (Group A): 24%
- Percentage of inhibition of cell cultures; Colon carcinoma (Adenocarcinoma); cases with amplification of the gene that encodes for the NK1 receptor: 96%
- Percentage of inhibition of cell cultures; Colon carcinoma (Adenocarcinoma); cases without amplification of the gene that encodes for the NK1 receptor: 24%
- Percentage of inhibition of cell cultures; Colon carcinoma (Adenocarcinoma); high expression of the truncated form of NK1 receptor (Group B): 94%
- Percentage of inhibition of cell cultures; Colon carcinoma (Adenocarcinoma); low expression of the truncated form of NK1 receptor (Group A): 24%
- Percentage of inhibition of cell cultures; Endometrium carcinoma; cases with amplification of the gene that encodes for the NK1 receptor: 96%
- Percentage of inhibition of cell cultures; Endometrium carcinoma; cases without amplification of the gene that encodes for the NK1 receptor: 28%
- Percentage of inhibition of cell cultures; Endometrium carcinoma; high expression of the truncated form of NK1 receptor (Group B): 94%
- Percentage of inhibition of cell cultures; Endometrium carcinoma; low expression of the truncated form of NK1 receptor (Group A): 26%
- Percentage of inhibition of cell cultures; Gastric carcinoma (Adenocarcinoma); cases with amplification of the gene that encodes for the NK1 receptor: 95%
- Percentage of inhibition of cell cultures; Gastric carcinoma (Adenocarcinoma); cases without amplification of the gene that encodes for the NK1 receptor: 25%
- Percentage of inhibition of cell cultures; Gastric carcinoma (Adenocarcinoma); high expression of the truncated form of NK1 receptor (Group B): 96%
- Percentage of inhibition of cell cultures; Gastric carcinoma (Adenocarcinoma); low expression of the truncated form of NK1 receptor (Group A): 22%
- Percentage of inhibition of cell cultures; Glioma (astrocytoma); cases with amplification of the gene that encodes for the NK1 receptor: 95%
- Percentage of inhibition of cell cultures; Glioma (astrocytoma); cases without amplification of the gene that encodes for the NK1 receptor: 25%
- Percentage of inhibition of cell cultures; Glioma (astrocytoma); high expression of the truncated form of NK1 receptor (Group B): 96%
- Percentage of inhibition of cell cultures; Glioma (astrocytoma); low expression of the truncated form of NK1 receptor (Group A): 24%
- Percentage of inhibition of cell cultures; Lung carcinoma (non small cell lung carcinoma); cases with amplification of the gene that encodes for the NK1 receptor: 97%
- Percentage of inhibition of cell cultures; Lung carcinoma (non small cell lung carcinoma); cases without amplification of the gene that encodes for the NK1 receptor: 25%
- Percentage of inhibition of cell cultures; Lung carcinoma (non small cell lung carcinoma); high expression of the truncated form of NK1 receptor (Group B): 95%
- Percentage of inhibition of cell cultures; Lung carcinoma (non small cell lung carcinoma); low expression of the truncated form of NK1 receptor (Group A): 26%
- Percentage of inhibition of cell cultures; Lung carcinoma (small cell lung carcinoma); cases with amplification of the gene that encodes for the NK1 receptor: 95%
- Percentage of inhibition of cell cultures; Lung carcinoma (small cell lung carcinoma); cases without amplification of the gene that encodes for the NK1 receptor: 26%
- Percentage of inhibition of cell cultures; Lung carcinoma (small cell lung carcinoma); high expression of the truncated form of NK1 receptor (Group B): 96%
- Percentage of inhibition of cell cultures; Lung carcinoma (small cell lung carcinoma); low expression of the truncated form of NK1 receptor (Group A): 25%
- Percentage of inhibition of cell cultures; Melanoma (Nodular Melanoma); cases with amplification of the gene that encodes for the NK1 receptor: 97%
- Percentage of inhibition of cell cultures; Melanoma (Nodular Melanoma); cases without amplification of the gene that encodes for the NK1 receptor: 26%
- Percentage of inhibition of cell cultures; Melanoma (Nodular Melanoma); high expression of the truncated form of NK1 receptor (Group B): 96%
- Percentage of inhibition of cell cultures; Melanoma (Nodular Melanoma); low expression of the truncated form of NK1 receptor (Group A): 26%
- Percentage of inhibition of cell cultures; Non Hodgkin Lymphoma B (diffuse B cell lymphoma); cases with amplification of the gene that encodes for the NK1 receptor: 94%
- Percentage of inhibition of cell cultures; Non Hodgkin Lymphoma B (diffuse B cell lymphoma); cases without amplification of the gene that encodes for the NK1 receptor: 26%
- Percentage of inhibition of cell cultures; Non Hodgkin Lymphoma B (diffuse B cell lymphoma); high expression of the truncated form of NK1 receptor (Group B): 95%
- Percentage of inhibition of cell cultures; Non Hodgkin Lymphoma B (diffuse B cell lymphoma); low expression of the truncated form of NK1 receptor (Group A): 24%
- Percentage of inhibition of cell cultures; Non Hodgkin Lymphoma T (diffuse T cell lymphoma); cases with amplification of the gene that encodes for the NK1 receptor: 95%
- Percentage of inhibition of cell cultures; Non Hodgkin Lymphoma T (diffuse T cell lymphoma); cases without amplification of the gene that encodes for the NK1 receptor: 24%
- Percentage of inhibition of cell cultures; Non Hodgkin Lymphoma T (diffuse T cell lymphoma); high expression of the truncated form of NK1 receptor (Group B): 95%
- Percentage of inhibition of cell cultures; Non Hodgkin Lymphoma T (diffuse T cell lymphoma); low expression of the truncated form of NK1 receptor (Group A): 25%
- Percentage of inhibition of cell cultures; Ovarian carcinoma (Adenocarcinoma); cases with amplification of the gene that encodes for the NK1 receptor: 95%
- Percentage of inhibition of cell cultures; Ovarian carcinoma (Adenocarcinoma); cases without amplification of the gene that encodes for the NK1 receptor: 24%
- Percentage of inhibition of cell cultures; Ovarian carcinoma (Adenocarcinoma); high expression of the truncated form of NK1 receptor (Group B): 95%
- Percentage of inhibition of cell cultures; Ovarian carcinoma (Adenocarcinoma); low expression of the truncated form of NK1 receptor (Group A): 25%
- Percentage of inhibition of cell cultures; Pancreatic carcinoma (Adenocarcinoma); cases with amplification of the gene that encodes for the NK1 receptor: 96%
- Percentage of inhibition of cell cultures; Pancreatic carcinoma (Adenocarcinoma); cases without amplification of the gene that encodes for the NK1 receptor: 25%
- Percentage of inhibition of cell cultures; Pancreatic carcinoma (Adenocarcinoma); high expression of the truncated form of NK1 receptor (Group B): 95%
- Percentage of inhibition of cell cultures; Pancreatic carcinoma (Adenocarcinoma); low expression of the truncated form of NK1 receptor (Group A): 23%
- Percentage of inhibition of cell cultures; Prostate carcinoma; cases with amplification of the gene that encodes for the NK1 receptor: 95%
- Percentage of inhibition of cell cultures; Prostate carcinoma; cases without amplification of the gene that encodes for the NK1 receptor: 25%
- Percentage of inhibition of cell cultures; Prostate carcinoma; high expression of the truncated form of NK1 receptor (Group B): 95%
- Percentage of inhibition of cell cultures; Prostate carcinoma; low expression of the truncated form of NK1 receptor (Group A): 27%
- Percentage of inhibition of cell cultures; Renal cell carcinoma (clear cell renal cell carcinoma); cases with amplification of the gene that encodes for the NK1 receptor: 97%
- Percentage of inhibition of cell cultures; Renal cell carcinoma (clear cell renal cell carcinoma); cases without amplification of the gene that encodes for the NK1 receptor: 27%
- Percentage of inhibition of cell cultures; Renal cell carcinoma (clear cell renal cell carcinoma); high expression of the truncated form of NK1 receptor (Group B): 93%
- Percentage of inhibition of cell cultures; Renal cell carcinoma (clear cell renal cell carcinoma); low expression of the truncated form of NK1 receptor (Group A): 24%
- Percentage of inhibition of cell cultures; Thyroid carcinoma (follicular carcinoma); cases with amplification of the gene that encodes for the NK1 receptor: 95%
- Percentage of inhibition of cell cultures; Thyroid carcinoma (follicular carcinoma); cases without amplification of the gene that encodes for the NK1 receptor: 26%
- Percentage of inhibition of cell cultures; Thyroid carcinoma (follicular carcinoma); high expression of the truncated form of NK1 receptor (Group B): 94%
- Percentage of inhibition of cell cultures; Thyroid carcinoma (follicular carcinoma); low expression of the truncated form of NK1 receptor (Group A): 24%
- Percentage of inhibition of cell cultures; Thyroid carcinoma (papillary carcinoma); cases with amplification of the gene that encodes for the NK1 receptor: 96%
- Percentage of inhibition of cell cultures; Thyroid carcinoma (papillary carcinoma); cases without amplification of the gene that encodes for the NK1 receptor: 27%
- Percentage of inhibition of cell cultures; Thyroid carcinoma (papillary carcinoma); high expression of the truncated form of NK1 receptor (Group B): 95%
- Percentage of inhibition of cell cultures; Thyroid carcinoma (papillary carcinoma); low expression of the truncated form of NK1 receptor (Group A): 25%
- Percentage of inhibition of cell cultures; Undifferentiated Pleomorphic Sarcoma (malignant fibrous histiocytoma grade 3); cases with amplification of the gene that encodes for the NK1 receptor: 96%
- Percentage of inhibition of cell cultures; Undifferentiated Pleomorphic Sarcoma (malignant fibrous histiocytoma grade 3); cases without amplification of the gene that encodes for the NK1 receptor: 25%
- Percentage of inhibition of cell cultures; Undifferentiated Pleomorphic Sarcoma (malignant fibrous histiocytoma grade 3); high expression of the truncated form of NK1 receptor (Group B): 95%
- Percentage of inhibition of cell cultures; Undifferentiated Pleomorphic Sarcoma (malignant fibrous histiocytoma grade 3); low expression of the truncated form of NK1 receptor (Group A): 25%
- Percentage of inhibition of cell cultures; Urinary bladder carcinoma (transitional cell carcinoma); cases with amplification of the gene that encodes for the NK1 receptor: 94%
- Percentage of inhibition of cell cultures; Urinary bladder carcinoma (transitional cell carcinoma); cases without amplification of the gene that encodes for the NK1 receptor: 24%
- Percentage of inhibition of cell cultures; Urinary bladder carcinoma (transitional cell carcinoma); high expression of the truncated form of NK1 receptor (Group B): 96%
- Percentage of inhibition of cell cultures; Urinary bladder carcinoma (transitional cell carcinoma); low expression of the truncated form of NK1 receptor (Group A): 26%
Substance: anti-NK1 antibody (S8305, Sigma-Aldrich)
